Here are results for one molecule from paper PMC8140157, “RTEL1 influences the abundance and localization of TERRA RNA” (Nature Communications, 2020).

Residue numbers refer to the chain shown, from its start.

Series [1] deals with T1, RTEL1∆762-1097 (human, UniProt Q9NZ71-6 762-1097).
T1 sequence: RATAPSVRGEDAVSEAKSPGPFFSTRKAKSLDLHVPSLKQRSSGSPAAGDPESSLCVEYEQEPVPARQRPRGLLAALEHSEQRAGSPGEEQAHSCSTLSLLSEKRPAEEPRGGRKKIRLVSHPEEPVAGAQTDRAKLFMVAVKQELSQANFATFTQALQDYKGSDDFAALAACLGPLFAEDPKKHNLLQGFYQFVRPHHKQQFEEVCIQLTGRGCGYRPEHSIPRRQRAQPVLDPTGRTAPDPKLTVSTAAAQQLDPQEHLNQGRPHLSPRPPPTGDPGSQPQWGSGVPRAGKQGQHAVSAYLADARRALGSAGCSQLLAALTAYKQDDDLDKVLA
The experiment in a line: competition (fluorescence anisotropy); vs FAM-TERRA-MUT, 1 uM; 20 mM Tris pH 7.5, 50 mM KCl, 0.5 mM TCEP, 0.5 mM MgCl2, 10% glycerol, 0.1% IGEPAL, room temperature 30 min; oligos refolded in 10 mM Tris pH 7.5, 100 mM KCl; EMSA legends give 150 or 300 mM KCl. The note with it: protein: recombinant; tags: 6xHis; no G4. (In general: In EMSA bound probe runs differently from free probe, usually more slowly.)

In series [2] the target is T2, RTEL1∆762R1264H (human, UniProt Q9NZ71-6 762-1300, R1264H).
T2 sequence: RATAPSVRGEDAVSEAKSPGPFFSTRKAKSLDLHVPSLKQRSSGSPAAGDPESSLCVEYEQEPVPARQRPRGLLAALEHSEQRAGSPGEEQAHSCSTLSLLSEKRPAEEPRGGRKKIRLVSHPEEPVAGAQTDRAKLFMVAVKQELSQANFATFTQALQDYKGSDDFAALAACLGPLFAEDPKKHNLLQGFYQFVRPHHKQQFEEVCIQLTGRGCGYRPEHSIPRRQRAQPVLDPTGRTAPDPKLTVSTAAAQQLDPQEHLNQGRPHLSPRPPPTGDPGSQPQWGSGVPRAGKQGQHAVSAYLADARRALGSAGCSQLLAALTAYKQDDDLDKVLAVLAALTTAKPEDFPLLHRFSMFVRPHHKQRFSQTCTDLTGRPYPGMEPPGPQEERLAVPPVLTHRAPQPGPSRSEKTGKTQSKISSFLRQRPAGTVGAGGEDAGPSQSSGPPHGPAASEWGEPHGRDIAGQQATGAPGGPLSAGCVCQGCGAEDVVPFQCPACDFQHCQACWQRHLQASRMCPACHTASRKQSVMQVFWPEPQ
Described as above. As to conditions: protein: recombinant; tags: 6xHis; no G4.

Series [3] deals with T3, RTEL1∆762 (human, UniProt Q9NZ71-6 762-1300).
T3 sequence: T2 sequence with H503R
The series is described as above. The note with it: protein: recombinant; tags: 6xHis; chain copies: 2; no G4.

Series [4] deals with T1, RTEL1∆762-1097. The series can be described thus: competition (fluorescence anisotropy); vs FAM-TERRA-MUT, 200 nM; 20 mM Tris pH 7.5, 50 mM KCl, 0.5 mM TCEP, 0.5 mM MgCl2, 10% glycerol, 0.1% IGEPAL, room temperature 30 min; oligos refolded in 10 mM Tris pH 7.5, 100 mM KCl; EMSA legends give 150 or 300 mM KCl. The note with it: protein: recombinant; tags: 6xHis; no G4.
Series [5] has as its target T2, RTEL1∆762R1264H. The description is as above. The note with it: protein: recombinant; tags: 6xHis; no G4.
Series [6] has as its target T3, RTEL1∆762. The experiment in a line: competition (fluorescence anisotropy); vs FAM-TERRA-MUT, 200 nM; error in main text misprinted as 0.74 nM; 20 mM Tris pH 7.5, 50 mM KCl, 0.5 mM TCEP, 0.5 mM MgCl2, 10% glycerol, 0.1% IGEPAL, room temperature 30 min; oligos refolded in 10 mM Tris pH 7.5, 100 mM KCl; EMSA legends give 150 or 300 mM KCl. As to conditions: protein: recombinant; tags: 6xHis; chain copies: 2; no G4.

On to UUACCGUUACCGUUACCGUUACCG (ssRNA) [TERRA-MUT competitor], for which the inhibition constant (Ki) (in general, a measure of affinity in units of concentration, obtained from inhibition or displacement) in series [1] worked out at 16.1 ± 15.1 µM; in series [2], 3.81 ± 1.45 µM; in series [3] it was 1450 ± 73 nM; in series [4], 1650 ± 377 nM; in series [5], 850 ± 125 nM; in series [6], 442 ± 74 nM.
